The record followed here is patent publication US20090291088A1, “THERAPEUTIC COMBINATIONS OF ANTI-IGF-1R ANTIBODIES AND OTHER COMPOUNDS” (Biogen Idec MA Inc., priority 2008, published 2009).

Residue numbers refer to the chain shown, from its start.

One experiment has as its system NCI-H23. Briefly: IGF driven tumor cell growth, CELL TITER-GLO, H-23. The format is cell-based, human. To be noted: for Proliferation of Tumor Cells H-23: lung cancer cells. As to the method:
(§1) NCI-H23, Calu-6, Colo-205, Panc-1, BxPC-3 (ATCC) tumor lines were purchased from ATCC. Cell lines were grown in complete growth medium containing RPMI-1640 (ATCC), 10% fetal bovine serum (Irvine Scientific Inc.) and 50 μg/ml of Gentamycin (Gibco, Invitrogen). Trypsin-EDTA solution (Sigma) was used for removal of adherent cells from culture vessels. Phosphate buffered saline, pH 7.2, was from MediaTech Inc The 96-well clear bottom plates for luminescent assay was purchased from Wallac Inc.
(§2) Cells grown to 80% monolayers were, trypsinized, washed, resuspended and plated into 96-well plates in 200 μl of 2% growth medium at 8×10^3 cells/well for NCI-H23 and Colo-205 cells; and 5×10^3 cells/well for Calu-6, Panc-1 and BxPC-3 cells. After 24 hours, the culture medium was replaced with 100 μl of serum free medium (SFM), and 50 μl of serially diluted antibodies at 4× concentration was added. […] All treatments were done in triplicates. Cell growth was measured using the CELL TITER-GLO™ Luminescent Cell Viability Assay (Promega, Madison, Wis.). The 1:1 mixture of reagent and SFM was added at 200 μl/well. Luminescence was detected on Wallac (Boston, Mass.) plate reader.
(§3) The ability of the selected murine antibodies to inhibit IGF/IGF-1R dependent in vitro growth of several human tumor lines (Lung, H-23, Calu-6; Pancreas, BxPc-3, Panc-1, MiaPaCa and Colon Colo205) was measured by a proliferation assay described in Example 13.
A commercially available anti-IGF-1R antibody (IR3) was used as a positive control. The mouse IgG (anti-IDectin, IgG1) and human gamma 4 version of IDEC-152 antibody of irrelevant specificity were used as isotype matched controls for the experiments. […]

Another experiment relates to Calu-6. Briefly: IGF driven tumor cell growth, CELL TITER-GLO, Calu-6. The format is cell-based, human. To be noted: lung cancer cells. The procedure:
as §1, §2, §3
Background: Cellular ATP, detected with luciferase, serves as a proxy for viable cell number.

Another experiment relates to Colo-205. Briefly: IGF driven tumor cell growth, CELL TITER-GLO, Colo-205. The format is cell-based, human. The note with it: colon cancer cell. As to the method: as §1, §2, §3
The next experiment has as its system MCF-7. Briefly: Ki67 inhibition in MCF-7 cells. The class given is cell-based, human. The note with it: breast cancer cell.
The target of experiment [1] is T1, recombinant human IGF-1R ectodomain (Homo sapiens, UniProt P08069).
T1 construct: denoted hIGF-1R(1-902)-His10, was purchased from R&D systems (Cat. No. 305-GR-050); His or Fc (two alternative proteins, not both on one chain); purchased R & D Systems 305-GR
Briefly: ELISA binding of Fabs and murine MAbs to recombinant soluble IGF-1R (IGF-1R-His, IGF-1R-Fc). To be noted: murine monoclonal antibodies; read-out: Binding (EC50nM) Protein ELISA. As to the method:
Recombinant human IGF-1R ectodomain was used to screen a human naïve phagemid Fab library containing 3.5×10^10 unique clones (Hoet, R. M., et al. Nat. Biotechnol. 23(3):344-8 (2005), (“Hoet et al.”) which is incorporated herein by reference in its entirety). Two distinct panning arms were followed using biotinylated IGF1R-his and IGF1R-Fc protein. Proteins were captured on steptavidin-coated magnetic beads prior to incubation with the phage library. In the case of IGF1R-Fc, a biotinylated anti-Fc antibody was captured on the magnetic beads, followed by captured of the Fc fusion protein. […] Sequence analysis of all clones determined 12 clones were isolated in both arms of the panning strategy. […]
ELISA assays were performed to determine specific binding of the Fab fragment antibodies to soluble IGF-1R over the insulin receptor. […] Bound antibody was detected with HRPO labeled goat α-human kappa (Southern Biotechnology Associates, #2060-05) for Fabs and goat α-mouse IgG Fcγ (Jackson Immunoresearch, # 115-035-164) for murine MAbs. Color development was stopped by addition of 4NH2SO4 and optical density is measured at 450 nm using a Molecular Devices plate reader and binding curves are generated.

The test system of a further experiment is Panc-1. In words: IGF driven tumor cell growth, CELL TITER-GLO, Panc-1. The class given is cell-based, human. To be noted: pancreatic cancer cell. The procedure:
as §1, §2, §3

The target in experiment [2] is T2, human IGF-1R(1-902)-His10 (Homo sapiens, UniProt P08069).
T2 construct: human IGF-1R(1-902)-His10 (hIGF-1R-His10 (R&D systems)); purchased R&D systems 305-GR-050
In words: SPR, receptor ectodomain injected over immobilized antibodies: hIGF-1R-His10. The class given is binding. The note with it: full-length fully human antibodies; even at the lowest concentration. The procedure:
SPR analyses were performed using a Biacore3000. The instrument was set to 25° C. and assays performed with running buffer HBS-EP pH 7.2 purchased from Biacore (Biacore, Cat. No. BR-1001-88). The fully human antibodies, M13-C06, M14-C03, and M14-G11 were immobilized to ˜10,000 RU on Biacore CM5 Research Grade Sensor Chip surfaces using the standard NHS/EDC-amine reactive chemistry according to protocols supplied by Biacore. For immobilization, the antibodies were diluted to 40 μg/mL in a 10 mM Acetate pH 4.0 buffer. To investigate the relative kinetics of association and dissociation of the full-length ectodomains of human IGF-1R(1-902)-His10 (hIGF-1R-His10 (R&D systems)) and human INSR(28-956)-His10 (INSR (R&D systems)) to each of the human antibodies, increasing concentrations of hIGF-1R-His10 or INSR were injected over the sensorchip surfaces. The hIGF-1R-His10 concentration series ranged from 1.0 nM to 250 nM while the INSR concentrations ranged from 1.0 nM to 2 μM. All antibody surfaces were reliably regenerated with 100 mM Glycine, pH 2.0. […] Flow rates were 20 μl/min. (“His10” denotes a 10-residue histidine tag on the C-terminus of the constructs.)
For orientation: Surface plasmon resonance follows binding to a sensor surface in real time, without labels.

The target in experiment [3] is T3, recombinant human IGF-1R-10His (Homo sapiens, UniProt P08069).
T3 construct: denoted hIGF-1R(1-902)-His10, was purchased from R&D systems (Cat. No. 305-GR-050); purchased R&D Systems 305-GR-050
In words: SPR, antibodies and Fabs on IGF-1R-His captured via PENTA-His antibody. The format is binding. The note with it: full-length antibodies, 64 nM to 0.5 nM.

B1: 20C8.3B8: murine anti-human IGF-1R monoclonal antibody from hybridoma; VH SEQ ID NO:43, VL SEQ ID NO:103 (antibody, V domains shown)
VH: DVQLQESGPDLVKPSQSLSLTCTVTGYSITSGYSWHWIRQFPGNKLEWMGYIHYSGGTNYNPSLKSRISITRDTSKNQFFLQLNSVTTEDTATYYCARSGYGYRSAYYFDYWGQGTTVTVSS
VL: DIVLTQSPASLAVSLGQRATISCRASKSVSTSAYSYMHWYQQKPGQPPKLLIYLASNLESGVPARFSGSGSGTDFTLNIHPVEEEDAATYYCQHSRELPYTFGGGTKLEIK
modifications: Antibody variable heavy chain sequence; Antibody variable light chain sequence
B1: the “inhibition of IGF-1 and IGF-2 driven cell proliferation in H-23” value in the experiment on NCI-H23 (NCI-H23 lung tumor cell line) is reported as “showed inhibition”. For the same molecule, the “Proliferation of Tumor Cells H-23” value with NCI-H23 is on record as “+++ (>30%@0.1 μg/ml)”. Moreover, the “Proliferation of Tumor Cells Calu-6” value with Calu-6 is “+++ (>30%@0.1 μg/ml)”. Moreover, the “Proliferation of Tumor Cells Colo-205” value with Colo-205 was “+++ (>30%@0.1 μg/ml)”. Moreover, in the experiment with MCF-7, the “Proliferation of Tumor Cells MCF-7* (Ki67 Inhibit.)” value is given as “+++ (>50%@0.1 μg/ml)”. Also, the EC50 in experiment [1] worked out at 0.085 nM. In addition, the “Proliferation of Tumor Cells Panc-1” value in the experiment with Panc-1 was “+++ (>30%@0.1 μg/ml)”.

B2: 20D8.24B11: murine anti-human IGF-1R monoclonal antibody from hybridoma; VH SEQ ID NO:53, VL SEQ ID NO:103 (antibody, V domains shown)
VH: B1 VH with V118L
VL: B1 VL
modifications: Antibody variable heavy chain sequence; Antibody variable light chain sequence
As to B2, in the experiment on NCI-H23, the “Proliferation of Tumor Cells H-23” value is “++++ (>30%@0.01 μg/ml)”. For the same molecule, the “Proliferation of Tumor Cells Calu-6” value in the experiment with Calu-6 is listed as “+++ (>30%@0.1 μg/ml)”. Moreover, the “Proliferation of Tumor Cells Colo-205” value in the experiment on Colo-205 was “+++ (>30%@0.1 μg/ml)”. Further, the “Proliferation of Tumor Cells MCF-7* (Ki67 Inhibit.)” value in the experiment on MCF-7 is reported as “++ (>50%@1 μg/ml)”. Also, the EC50 in experiment [1] came out at 0.042 nM. In the experiment with Panc-1, the “Proliferation of Tumor Cells Panc-1” value is on record as “+++ (>30%@0.1 μg/ml)”.

B3: M14-C03: anti-IGF-1R antibody, allosteric blocker of IGF-1 and IGF-2 (antibody, V domains shown)
VH: EVQLLESGGGLVQPGGSLRLSCAASGFTFSKYMMSWVRQAPGKGLEWVSYISPSGGLTWYADSVKGRFTISRDNSKNTLYLQMNSLRAEDTAVYYCARDGARGYGMDVWGQGTTVTVSS
VL: DIQMTQSPATLSLSPGERATLSCRASQSVSSYLAWYQQKPGQAPRLLIYDASNRATGIPARFSGSGSGTDFTLTISSLEPEDFAVYYCQQRSNWPPEVTFGPGTKVDIK
modifications: Antibody variable heavy chain sequence; Antibody variable light chain sequence
Regarding B3, the “binding of hIGF-1R-His10 to immobilized antibody surface” value in experiment [2] is recorded as “demonstrated binding”. In experiment [3], the “binding to immobilized recombinant human IGF-1R (SPR)” value was “strong binding”.
